Substitutions are numbered along the chain they refer to.
Key:
Details in all cases: both partners purified
Ufd2p NLM = biological target: T1, Ufd2p NLM (S. cerevisiae, UniProt P54860 1-961, E51A | K52A | L53A | D54A | K55A | E105A | N106A | M109A | N110A); test: pull-down; GST-Rad23p used to pull down Ufd2p, Ufd2p N mut-1 or Ufd2p NLM; blot with anti-Ufd2; GST as control
T1 construct: Ufd2p, S. cerevisiae, amino acids 1-961, two N-terminal loops mutated to alanine; prey of the GST-Rad23p pull-down and enzyme of the ubiquitination reactions; also called Ufd2 NLM
T1 sequence (looked up): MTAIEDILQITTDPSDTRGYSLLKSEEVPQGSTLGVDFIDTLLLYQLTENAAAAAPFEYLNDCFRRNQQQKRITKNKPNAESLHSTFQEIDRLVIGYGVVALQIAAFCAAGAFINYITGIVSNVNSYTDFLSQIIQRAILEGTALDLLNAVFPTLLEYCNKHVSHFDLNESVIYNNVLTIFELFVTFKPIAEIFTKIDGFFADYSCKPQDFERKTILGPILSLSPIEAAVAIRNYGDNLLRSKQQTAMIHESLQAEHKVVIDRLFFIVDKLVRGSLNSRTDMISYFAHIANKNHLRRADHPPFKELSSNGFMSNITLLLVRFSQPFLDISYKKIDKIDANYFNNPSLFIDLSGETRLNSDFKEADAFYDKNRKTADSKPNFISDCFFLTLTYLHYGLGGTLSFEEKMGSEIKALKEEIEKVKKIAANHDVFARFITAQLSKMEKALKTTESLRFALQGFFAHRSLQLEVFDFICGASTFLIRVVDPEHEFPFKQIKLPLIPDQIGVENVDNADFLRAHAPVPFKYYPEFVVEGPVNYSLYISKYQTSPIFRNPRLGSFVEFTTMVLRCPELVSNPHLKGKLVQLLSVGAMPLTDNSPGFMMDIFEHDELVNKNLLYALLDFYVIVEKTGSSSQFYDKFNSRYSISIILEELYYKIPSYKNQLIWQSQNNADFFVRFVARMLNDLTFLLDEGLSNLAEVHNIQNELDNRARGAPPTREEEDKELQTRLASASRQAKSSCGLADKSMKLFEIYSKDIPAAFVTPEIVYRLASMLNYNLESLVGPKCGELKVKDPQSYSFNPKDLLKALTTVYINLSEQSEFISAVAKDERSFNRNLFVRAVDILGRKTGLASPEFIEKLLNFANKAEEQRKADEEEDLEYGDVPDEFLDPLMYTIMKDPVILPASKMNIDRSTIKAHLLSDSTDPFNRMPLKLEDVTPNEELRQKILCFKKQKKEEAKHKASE

Ufd2p = biological target: T2, Ufd2p (S. cerevisiae, UniProt P54860 1-961); test: as above
T2 construct: Ufd2p, S. cerevisiae, amino acids 1-961; also called wild-type Ufd2p; source: E. coli Rosetta (DE3), purified
T2 sequence (looked up): T1 sequence (looked up) with A51E, A52K, A53L, A54D, A55K, A105E, A106N, A109M, A110N

[1] = biological target: T3, wild-type Ufd2p (GST pull-down with Rad23p, Supplementary Fig. 14) (S. cerevisiae, UniProt P54860 1-961); test: pull-down; GST pull-down of Ufd2p or Ufd2p NLM with Rad23p (Supplementary Fig. 14); which partner carried GST is not told
T3 construct: Ufd2p, S. cerevisiae; amino acids 1-961; May be the same as m2 if Ufd2p was the GST-tagged bait
T3 sequence (looked up): T1 sequence (looked up) with A51E, A52K, A53L, A54D, A55K, A105E, A106N, A109M, A110N

[2] = biological target: T4, Ufd2p NLM (GST pull-down with Rad23p, Supplementary Fig. 14) (S. cerevisiae, UniProt P54860 1-961, E51A | K52A | L53A | D54A | K55A | E105A | N106A | M109A | N110A); test: as above
T4 construct: Ufd2p, S. cerevisiae; 1-961 with residues of the two N-terminal loops mutated to alanine; May be the same as m12 if Ufd2p NLM was the GST-tagged bait
T4 sequence (looked up): T1 sequence (looked up)

B1: GST-Rad23p (natural protein, S. cerevisiae, UniProt P32628 1-398, looked up)
chain: MVSLTFKNFKKEKVPLDLEPSNTILETKTKLAQSISCEESQIKLIYSGKVLQDSKTVSECGLKDGDQVVFMVSQKKSTKTKVTEPPIAPESATTPGRENSTEASPSTDASAAPAATAPEGSQPQEEQTATTERTESASTPGFVVGTERNETIERIMEMGYQREEVERALRAAFNNPDRAVEYLLMGIPENLRQPEPQQQTAAAAEQPSTAATTAEQPAEDDLFAQAAQGGNASSGALGTTGGATDAAQGGPPGSIGLTVEDLLSLRQVVSGNPEALAPLLENISARYPQLREHIMANPEVFVSMLLEAVGDNMQDVMEGADDMVEGEDIEVTGEAAAAGLGQGEGEGSFQVDYTPEDDQAISRLCELGFERDLVIQVYFACDKNEEAAANILFSDHAD
notes: Rad23p, ubiquitin receptor for the proteasome, yeast; source: E. coli Rosetta (DE3), purified (Glutathione Sepharose 4B, size exclusion chromatography); not shown: GST, N-terminal, kept
B1: binds (Ufd2p NLM); binds (Ufd2p).

B2: Rad23p (GST pull-down with Ufd2p, Supplementary Fig. 14) (natural protein, UniProt P32628 1-398, looked up)
chain: B1 chain
notes: Rad23p; May be the same as m19 if Rad23p was the GST-tagged bait
B2: binds [1]; binds [2].
